Assay results taken from patent US20250042970A1.
Like-named read-outs stand apart in the source and are kept apart here.

Experiments:
[1] = molecular target: human BAFF (Examples 21-23) (human) (UniProt Q9Y275); test: colorimetric ELISA, inhibition curve (450 nm against LogM of the fusion protein) for human BAFF; the partner on the plate not given
[2] = molecular target: human BAFF (Examples 21-23) (human) (UniProt Q9Y275); test: assay not given (Example 21)
[3] = molecular target: human APRIL (Examples 21-23) (human) (UniProt O75888); test: assay not given (Example 21)
[4] = molecular target: murine APRIL (Examples 22-23) (mouse) (UniProt Q9D777); test: colorimetric ELISA, inhibition curve (450 nm against logM of the fusion protein) for mouse APRIL; the partner on the plate not given
syndecan-2 [5] = test: colorimetric ELISA, binding curve (450 nm against LogM) on syndecan-2; curve rises to about 1.1 at LogM about -6.7, no plateau
[6] = molecular target: murine BAFF (Examples 22-23) (mouse) (UniProt Q9WU72); test: SPR (Carterra LSA, HC30M chip)
[7] = molecular target: murine APRIL (Examples 22-23) (mouse) (UniProt Q9D777); test: SPR (Carterra LSA, HC30M chip)
[8] = molecular target: human BAFF (Examples 21-23) (human) (UniProt Q9Y275); test: SPR (Carterra LSA, HC30M chip)
[9] = molecular target: human APRIL (Examples 21-23) (human) (UniProt O75888); test: SPR (Carterra LSA, HC30M chip)
[10] = molecular target: murine BAFF (Examples 22-23) (mouse) (UniProt Q9WU72); test: colorimetric ELISA, inhibition curve (450 nm against logM of the fusion protein) for mouse BAFF; the partner on the plate not given
[11] = molecular target: human BAFF (Acros Biosystems) (human) (UniProt Q9Y275); test: cell-based or functional assay
[12] = molecular target: human BAFF-60mer (Adipogen) (human) (UniProt Q9Y275); test: cell-based or functional assay
[13] = molecular target: human APRIL (Acros Biosystems) (human) (UniProt O75888); test: cell-based or functional assay
[14] = molecular target: human APRIL (Examples 21-23) (human) (UniProt O75888); test: colorimetric ELISA, inhibition curve (450 nm against LogM of the fusion protein) for human APRIL; the partner on the plate not given
syndecan-1 [15] = molecular target: T1, syndecan-1; test: colorimetric ELISA, binding curve (450 nm against LogM) on syndecan-1; curve rises to about 0.7 at LogM about -6.7, no plateau
T1 sequence (P18827 whole entry, species assumed, looked up): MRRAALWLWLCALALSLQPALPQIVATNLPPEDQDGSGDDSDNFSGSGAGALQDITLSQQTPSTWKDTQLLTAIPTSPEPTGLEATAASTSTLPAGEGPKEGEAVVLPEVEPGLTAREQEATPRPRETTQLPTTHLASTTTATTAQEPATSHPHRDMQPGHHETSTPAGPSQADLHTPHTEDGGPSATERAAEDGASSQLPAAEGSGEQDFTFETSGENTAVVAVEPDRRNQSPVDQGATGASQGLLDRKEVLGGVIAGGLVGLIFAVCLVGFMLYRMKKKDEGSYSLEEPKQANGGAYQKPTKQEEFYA

syndecan-1 [16] = molecular target: T1, syndecan-1; test: colorimetric ELISA, binding curve (450 nm against LogM) on syndecan-1; curve rises to about 1.8 at LogM about -6.7, no plateau
syndecan-2 [17] = test: colorimetric ELISA, binding curve (450 nm against LogM) on syndecan-2; curve rises to about 2.4 at LogM about -6.7, no plateau
membrane-huBAFF (human) = membrane-huBAFF (human) (UniProt Q9Y275)
[18] = molecular target: soluble huBAFF (Example 12) (human) (UniProt Q9Y275)
[19] = molecular target: FLAG-tagged murine megaAPRIL (mouse) (UniProt Q9D777); test: BIACORE SPR
[20] = molecular target: FLAG-tagged cynomolgous APRIL (cynomolgus monkey); test: BIACORE SPR
[21] = molecular target: FLAG-tagged human BAFF (human) (UniProt Q9Y275); test: BIACORE SPR
[22] = molecular target: 6HIS-tagged murine BAFF (mouse) (UniProt Q9WU72); test: BIACORE SPR
[23] = molecular target: FLAG-tagged human BAFF (human) (UniProt Q9Y275); test: KinExA
[24] = molecular target: FLAG-tagged recombinant human APRIL (human) (UniProt O75888); test: KinExA
[25] = molecular target: FLAG-tagged human BAFF (human) (UniProt Q9Y275); test: BIACORE SPR; Table 3 experiment (BAv8-10 derivative series), control run
[26] = molecular target: FLAG-tagged cynomolgous APRIL (cynomolgus monkey); test: BIACORE SPR; remark: listed apart in the source
[27] = molecular target: FLAG-tagged human BAFF (human) (UniProt Q9Y275); test: BIACORE SPR; remark: listed apart in the source
[28] = molecular target: FLAG-tagged human BAFF (human) (UniProt Q9Y275); test: KinExA; remark: listed apart in the source

Sequence of RC18 (Telitacicept) (Fc fusion) (chain): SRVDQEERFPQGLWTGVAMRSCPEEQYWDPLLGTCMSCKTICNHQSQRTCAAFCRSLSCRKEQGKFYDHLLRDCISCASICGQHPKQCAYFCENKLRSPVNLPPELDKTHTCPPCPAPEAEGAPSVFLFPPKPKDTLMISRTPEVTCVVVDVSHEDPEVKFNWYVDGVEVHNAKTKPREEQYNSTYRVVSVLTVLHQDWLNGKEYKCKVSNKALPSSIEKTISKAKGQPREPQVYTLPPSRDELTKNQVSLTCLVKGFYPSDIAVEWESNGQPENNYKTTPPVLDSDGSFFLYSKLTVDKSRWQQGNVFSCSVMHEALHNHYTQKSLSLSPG
Sequence of FLAG-tagged cynomolgous APRIL (cynomolgus monkey) (A0ACM8 entry or part of it limits assumed): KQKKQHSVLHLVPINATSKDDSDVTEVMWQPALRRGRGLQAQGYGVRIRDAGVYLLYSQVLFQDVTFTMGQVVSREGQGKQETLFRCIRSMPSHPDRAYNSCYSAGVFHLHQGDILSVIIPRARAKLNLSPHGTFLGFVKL
Sequence of human APRIL (Acros Biosystems) (human) (O75888 115-250 limits assumed): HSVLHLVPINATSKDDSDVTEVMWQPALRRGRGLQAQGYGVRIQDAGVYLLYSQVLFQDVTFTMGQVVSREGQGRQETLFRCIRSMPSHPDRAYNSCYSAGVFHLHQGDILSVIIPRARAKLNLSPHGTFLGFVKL
Sequence of murine APRIL (Examples 22-23) (mouse) (Q9D777 96-241 limits assumed): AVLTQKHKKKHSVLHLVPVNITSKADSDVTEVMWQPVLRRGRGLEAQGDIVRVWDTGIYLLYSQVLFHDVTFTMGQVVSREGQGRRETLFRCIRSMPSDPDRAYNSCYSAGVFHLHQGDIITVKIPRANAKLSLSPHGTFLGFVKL
Sequence of murine BAFF (Examples 22-23) (mouse) (Q9WU72 127-309 limits assumed): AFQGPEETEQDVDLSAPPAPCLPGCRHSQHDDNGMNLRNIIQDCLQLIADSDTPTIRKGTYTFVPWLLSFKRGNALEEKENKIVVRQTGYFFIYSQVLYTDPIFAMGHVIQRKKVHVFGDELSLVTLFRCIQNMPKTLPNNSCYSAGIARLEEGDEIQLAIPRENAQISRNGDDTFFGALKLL
Sequence of human APRIL (Examples 21-23) (human) (O75888 105-250 limits assumed): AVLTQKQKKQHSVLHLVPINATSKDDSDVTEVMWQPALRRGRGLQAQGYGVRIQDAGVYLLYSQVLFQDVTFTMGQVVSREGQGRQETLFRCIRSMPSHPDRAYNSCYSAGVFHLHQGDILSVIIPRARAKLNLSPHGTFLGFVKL
Sequence of FLAG-tagged recombinant human APRIL (human) (O75888 105-250 limits assumed): as above
Sequence of 6HIS-tagged murine BAFF (mouse) (Q9WU72 127-309 limits assumed): as the sequence (Q9WU72 127-309 limits assumed) above
Sequence of syndecan-2 (P34741 whole entry): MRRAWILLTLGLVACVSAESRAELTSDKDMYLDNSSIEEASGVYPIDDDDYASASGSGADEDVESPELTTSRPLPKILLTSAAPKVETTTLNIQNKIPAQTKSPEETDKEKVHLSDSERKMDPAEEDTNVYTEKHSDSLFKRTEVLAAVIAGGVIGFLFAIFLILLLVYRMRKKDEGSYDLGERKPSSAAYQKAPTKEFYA

IC50 [1] [nM]	IC50 [4] [nM]	Kd [6] [nM]	Kd [8] [nM]	Kd [9] [nM]	IC50 [10] [nM]	IC50 for proliferation of stimulated B cells, Donor 1, BAFF + anti-IgM [11] [nM]	IC50 for proliferation of stimulated B cells, Donor 2, BAFF + anti-IgM [11] [nM]	IC50 for proliferation of stimulated B cells, Donor 3, BAFF + anti-IgM [11] [nM]	IC50 for proliferation of stimulated B cells, Donor 1, BAFF-60mer + anti-IgM [12] [nM]	IC50 for proliferation of stimulated B cells, Donor 2, BAFF-60mer + anti-IgM [12] [nM]	IC50 for proliferation of stimulated B cells, Donor 3, BAFF-60mer + anti-IgM [12] [nM]	IC50 for proliferation of stimulated B cells, Donor 1, APRIL + anti-IgM [13] [nM]	IC50 for proliferation of stimulated B cells, Donor 2, APRIL + anti-IgM [13] [pM]	IC50 for proliferation of stimulated B cells, Donor 3, APRIL + anti-IgM [13] [nM]	IC50 [14] [nM]	IC50 (read off the curve) (NFkappaB luciferase signal of HEK293-huBCMA reporter cells stimulated with soluble huBAFF) [18] [nM]	Kd [19] [nM]	Kd [20] [nM]	fold improvement KD vs control [20] [fold]	other results	Substance
6.8	212	0.532	0.919	0.067	31	0.64	0.0985	0.379	2.06	0.683	1.13	3	0.01	2.15	3.6					Kd [2]: 0.15 nM; Kd [3]: 0.13 nM; EC50 (syndecan-2 [5]): 5400 nM; Kd [7]: 0.13 nM; EC50 (syndecan-1 [15]): 120 nM	Atacicept (Fc fusion)
12.4	236	0.0023	0.616	0.082	39	1.98	0.295	1.05	2.37	0.818	1.97	2.51	573	4.14	6.7					EC50 (syndecan-1 [16]): 160 nM; EC50 (syndecan-2 [17]): 70 nM	RC18 (Telitacicept) (Fc fusion)
																5	0.421	1.21	0.01	IC50 (read off the curve) (NFkappaB luciferase signal of HEK293-huBCMA reporter cells stimulated with HEK-293 cells expressing membrane huBAFF) (membrane-huBAFF (human)): 5 nM; Kd [21]: 0.0745 nM; fold improvement KD vs control [21]: 1.6 fold; Kd [22]: 0.229 nM; Kd [23]: 0.151 nM; Selectivity for huBAFF (KD APRIL/KD BAFF) [23]: 0.9; fold improvement over control [23]: 1.5 fold; Kd [24]: 0.131 nM; Selectivity for huAPRIL (KD BAFF/KD APRIL) [24]: 1.15; fold improvement over control [24]: 0.001 fold	Z-TACI-Ig fusion protein (from UniProt O14836 30-110) (Fc fusion)
																2	0.0216	0.0151	1	Kd [25]: 0.173 nM; Kd [26]: 0.057 nM; fold improvement over control [26]: 1 fold; fold improvement over control [27]: 1 fold; Kd [21]: 0.121 nM; fold improvement KD vs control [21]: 1 fold; Kd [22]: 0.0669 nM; Kd [23]: 0.226 nM; Selectivity for huBAFF (KD APRIL/KD BAFF) [23]: 0.0007; fold improvement over control [23]: 1 fold; Kd [24]: 0.000159 nM; Selectivity for huAPRIL (KD BAFF/KD APRIL) [24]: 1420; fold improvement over control [24]: 1 fold; Kd [28]: 0.226 nM	[S40G]huBCMA ECD-Ig fusion protein (from UniProt Q02223 5-54) (Fc fusion)
